Source: the nanobody polyreactivity screen of Harvey et al. (2022)

Assay: yeast display, Sf9 membrane polyspecificity reagent, FACS + sequencing; frameworks hold sequencing errors
Outline: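 Genes from sorted yeast were amplified by colony PCR, read by MiSeq 2 × 250 sequencing and filtered on CDR length. These cells carried a synthetic nanobody library in Saccharomyces cerevisiae BJ5465 and were sorted by FACS into low and high (top ~1%) gates on anti-HA and streptavidin fluorescence. Polyreactivity is labelled according to the gate of origin.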

Row | Sequence | polyreactivity (PSR sort gate)
1 | QVQLVESGGGLVQAGGSLRLSCAASGRIFYYYVMGWYRQAPGKERELVAVIDWSGGSTYYADSVKGRFTISRDNAKNTVYLQMNSLKPEDTAVYYCAKVWLNFSLAYEDYDYWGQGTQVTVSS | low polyreactivity
2 | QVQLVESGGGLVQAGGSLRLSCAASGRIFYYYVMGWYRQAPGKERELVAVIDWSGGSTYYADSVKGRFTISRDNAKNTVYLQMNSLKPEDTGVYYCAKVWLKFSLAYEDYDYLGQGTQVTVSS | low polyreactivity
3 | QVQLVESGGGLVQAGGSLRLSCAASGRIGYYVMGWYRQAPGKERELVAAISRSGDSTYYADSVKGRFTISRDNAKNTVYLQMNSLKPEDTAVYYCAAASGWRYFYKYDYWGQGTQVTVSS | high polyreactivity
4 | QVQLVESGGGLVQAGGSLRLSCAASGRIIANYAMGWYRQAPGKEREVVAGISSGGSTNYADSVKGRFTISRDNAKNPVYLQMNSLKPEDTAVYYCAKDPAYRVSKYDYWGQGTQVTVSS | low polyreactivity
5 | QVQLVESGGGLVQAGGSLRLSCAASGRIIAYNTMGWNRQAHWKERDWVAAISSRGGRTYYADSVKGRFTISRDNAKNTVYLEMNSLKPEDTAVYYCAAKYYRYGDPDRYDYWGQGTQVTVSS | high polyreactivity
6 | QVQLVESGGGLVQAGGSLRLSCAASGRIIAYYAMGWSRQAPGKERELVAAINWNGGSTYYADSVKGRFTISRDNAKNTVYLQMNSLKPEDTAVYYCNAGRTYTALNGDYWGQGTQVTLSS | high polyreactivity
7 | QVQLVESGGGLVQAGGSLRLSCAASGRIIDLNAMGWYRQAPGKERQLVAAISYSGGRTFYADSVKGRFTISRDNAKNTVYLQMNSLKPEDTAVYYCNARYGKPAYQYGMDYWGQGTQVTVSS | low polyreactivity
8 | QVQLVESGGGLVQAGGSLRLSCAASGRIIDYYTMGWDRQAPGKERELVATITIVGITNYADSVKGRFTISRDNAKNTVYLQMNSLKPEDTAVYYCAADRADFFVIRTIDPYDYWGQGTQVTVSS | low polyreactivity
9 | QVQLVESGGGLVQAGGSLRLSCAASGRIIFAYTMGWYRQAPGKERELVAAISSSGSTYYADSVKGRFTISRDNAKNTVYLQMNSLKPEDTAVYYLRVQRRAYRYDYWGQGTQVTVTS | high polyreactivity
10 | QVQLVESGGGLVQAGGSLRLSCAASGRIIGFNAMGWYRQAPGKERELVASIRTTGGSTRYADSVKGRFTISRDNAKNTVYLQMNSLKPEDTAVYYCAARSRLRYLYDYWGQVTQVTVSS | high polyreactivity
11 | QVQLVESGGGLVQAGGSLRLSCAASGRIIGKNAMGWYRQAPGEERELVAAIRYNGGRTYYADSVKGRFTISRDNAKNTVYLQMNSLKPEDTAVYYCATRTYRVDPEFGYWGQGTQVTVSS | high polyreactivity
12 | QVQLVESGGGLVQAGGSLRLSCAASGRIIGLYTMGWYRQAPGKERELVAAINIRGTRTYYADSVKGRFTISRDNAKNTVYLQMNSLKPEDTAVYYCAAASYRSGRYTFDYWGQGTQVTVSS | high polyreactivity
13 | QVQLVESGGGLVQAGGSLRLSCAASGRIIGRYAMGWYRQAPGKERELVAGITIRGGSTYYADSVKGRFTISRDNAKNTVYLQMNSLKPEDTAVYYCAARHGSGFRYYPGHAGGYWGQGTQVTVSS | low polyreactivity
14 | QVQLVESGGGLVQAGGSLRLSCAASGRIIGYNAMGWYRQAPGKERELVASIRYSGGSTYYADSVKGRFTISRDNAMNTVYLQMNSLKPEDTAVYYCATRVTYRRRFDYWGQGTQVTVSS | high polyreactivity
15 | QVQLVESGGGLVQAGGSLRLSCAASGRIIGYYAMGWYRQAPGKERELVAAISRRGGSTYYADSVKGRFTISRDNAKNTVYLQMNSLKPEDTAVYYCATLTLESFSALYYWGQGTQVTVSS | low polyreactivity
16 | QVQLVESGGGLVQAGGSLRLSCAASGRIIIRYAMGWYRQAPGKERELVAGISRRGGSTSYADSVKWRFTISRDNAKNTVYLQMNSLKPEDTAVYYCGADSQYKYDYWGQGTQVTVSS | high polyreactivity
17 | QVQLVESGGGLVQAGGSLRLSCAASGRIIKRYAMGWYRQAPGKERELVAAISASGSSTYYADSVKGRFTISRDNAKNTVYLQMNSLKPEDTAVYYCAAWAYSPSASYDYWGQGTQVTVSS | high polyreactivity
18 | QVQLVESGGGLVQAGGSLRLSCAASGRIINYYAMGWYRPAPGKERELVAGISWSGGSTSYADSVKGRFTISRDNAKNTVYLQMNSLKPEDTAVYYCAAGVFKAFYYWGQGTQVTVSS | low polyreactivity
19 | QVQLVESGGGLVQAGGSLRLSCAASGRIIPKYAMGWYRQAPGKERELVAAISSSGGSTYYADSVKGRFTISRDNAKNTVYLQINSLKPEDTAVYYCNVDKATRYRYPGFDYWGQGTQVTVSS | high polyreactivity
20 | QVQLVESGGGLVQAGGSLRLSCAASGRIIRINAMGWYRQAPGKERELVAAITRGGTTYADSVKGRFTISRDNAKNTVYLQMNSLKPEDTAVYYCNARTGRSPTGFRYWGQGTQVTVSS | high polyreactivity
21 | QVQLVESGGGLVQAGGSLRLSCAASGRIIRWYAMGWYRQAPGKERELVAAISGSGGSTYYADSVKGRFTISRDNAKNTVYLQMNSLKPEDTAVYYCAAAYYRDSDRRYNYWGQGTQVTVSS | high polyreactivity
22 | QVQLVESGGGLVQAGGSLRLSCAASGRIIRYYAMGWYRPAPGKERELVAGITTGGGSTYYADSVKGRFTISRDNAKNTVYLQMNSLKPEDTAVYYCAARYYTTYYWGQGTQVTVSS | high polyreactivity

Row | Sequence | polyreactivity (PSR sort gate)
23 | QVQLVESGGGLVQAGGSLRLSCAASGRIISHNAMGWYRQAPGKERELVAVISNGGSTYYADSVKGRFTISRDNAKNTVYLQMNSLKPEDTAVYYCAARYTPQSGFYYRGQGTQVTVSS | low polyreactivity
24 | QVQLVESGGGLVQAGGSLRLSCAASGRIISRNAMGWYRQAPGKERELVAAISGSGSRTFYADSVKGRFTISRDNAKNTVYLQMNSLKPEDTAVYYCAADRSSYSRFYYWGQGTQVTVSS | high polyreactivity
25 | QVQLVESGGGLVQAGGSLRLSCAASGRIIYGYTMGWYRQAPGKERELVAVISRGGSTNYADSVKGRFSISRDNAKYTVYLQMNSLKPEDTAVYYCAATTKLPRGNYWYYYWGQGTQVTVSS | high polyreactivity
26 | QVQLVESGGGLVQAGGSLRLSCAASGRIIYINAMGWYRQAPGKERELVAAISSDGNTNYADSVKGRFTISRDNAKNTVYLQMNSLKPEDTAVYYCNADVWFYYTFDYWGLGTQVTVSS | low polyreactivity
27 | QVQLVESGGGLVQAGGSLRLSCAASGRIIYRYAMGWYRQAPGKERELVAAIRYSGGRTYYADSVKGRFTISRDNAKNTVYLQMNSLKPEDTAVYYCAADGQWYYARFRGGDYENDYWGQGTQVTVSS | low polyreactivity
28 | QVQLVESGGGLVQAGGSLRLSCAASGRIKYNVMGWYRQAPGKEMELVAAITRSAGRTYYADSVKGRFSISRDNAKNTVYLQMNSLKPEHTGGYYCAAQAERYGYVYWGQGTQVTVSS | low polyreactivity
29 | QVQLVESGGGLVQAGGSLRLSCAASGRILAANAMRWYRQAPGKERELVAAISWSGGRTYYADSVKGRFTISRDNAKNTVYLQMNSLKPEDTAVYYCASVRRYKMDYWGQGTQVTVSS | high polyreactivity
30 | QVQLVESGGGLVQAGGSLRLSCAASGRILARYTMGWYRQAPGKERELVAAISRSSGSTYYADSVKGRFTISRDTAKNTVYLQMNSLKPEDTAVYYCAAYLSYWGQGTQVTVSS | high polyreactivity
31 | QVQLVESGGGLVQAGGSLRLSCAASGRILDYNAMGWYRQAPGKERELVAAITWRGGSTYYADSVKGRFTISRDNAKNTVYLQMNSLKPEDTAVYYCNARWSKTAHTRFGYWGQGTQVTVSS | low polyreactivity
32 | QVQLVESGGGLVQAGGSLRLSCAASGRILFGYAMGWYRQAPGKERELVADITSTGSTNYADSVKGRFTISRDNAKNSVYLQMNSLKPEDTAVYYCNARRESYYQRYRVDYWGQGTQVTVSS | low polyreactivity
33 | QVQLVESGGGLVQAGGSLRLSCAASGRILGAYAMGWYRQAPGKERELVASISSGGRTYYADSVKGRFTISRDNAKNTVYLQMNSLKPEDTAVYYCNRDRNSGFYRRYGYWGQGTQVTVSS | high polyreactivity
34 | QVQLVESGGGLVQAGGSLRLSCAASGRILGDYAMGWYRQAPGTEREFVAAIDYNGGSTNYADSVMGRFTISRDNAKNTVYFQMNSLKPEDTAVYYCAKTDGFYRGYGYWGQGTQVTVSS | low polyreactivity
35 | QVQLVESGGGLVQAGGSLRLSCAASGRILGKYAMGWYRQAPGKERELVAAIRLRGGSTYYADSVKGRFTISRDNAKNTVYLQMNSLKPEDTAVYYCAARYWDRSQAYTYWGQGTQVTVSS | high polyreactivity
36 | QVQLVESGGGLVQAGGSLRLSCAASGRILGNNVMGWYRQAPGKERELVDAITSSGGRTYYADSVKGRFTISRDNAKNTVYLQMNSLKPEDTAVYYCAAERRYYGKFNYWGQGTQVTVSS | high polyreactivity
37 | QVQLVESGGGLVQAGGSLRLSCAASGRILGQYAMGWYRQAPGKERELVAAISFRGGRTYYADSVKGRFTISRDNAKNTVYLQMNSLKPEDTAVYYCATDGWRSPYYRNYRYFYTEYYYWGQGTQVTVSS | high polyreactivity
38 | QVQLVESGGGLVQAGGSLRLSCAASGRILGQYVMGWYRQAPGKERELVASIRSGGVSTYYADSVKGRFTISRDNAKNTVYLQMNSLKPEDTAVYYCATGSPGPRRYKFDYWGQGTQVTVSS | low polyreactivity
39 | QVQLVESGGGLVQAGGSLRLSCAASGRILGRYAMGWYRQAPGKERELVAAISGSGTSTYYADSVKGRFTISRDNAKNTVYLQMNSLKPEDTAVYYCAAKWITRRGGDFDYWGQGTQVTVSS | high polyreactivity
40 | QVQLVESGGGLVQAGGSLRLSCAASGRILGVNAMGGYRQAPGKERELVAAINFSGGGTYYADSVKGRFTISRDNAKNTVYLQMNSLKPEDTAVYYCAAGYVTTWFRYDYWGWGQGTQVTVSS | low polyreactivity
41 | QVQLVESGGGLVQAGGSLRLSCAASGRILGYNARGWYRQAPGKEREFVATISKRTGSTRYADSVKGRFTISRDNAKNTVYLQMNSLKPEDTAVYYCAAYYGRFYGKYDYWGQGTQVTVSS | high polyreactivity
42 | QVQLVESGGGLVQAGGSLRLSCAASGRILHHYAMGWYIQAHGKERELVAAIRWGGGSTYYADSVKGRFTISRDNAKNTVYLQMNSLKPEDTAVYYCAAEVVAGYDYSQYYYWGQCTQVTVSS | low polyreactivity
43 | QVQLVESGGGLVQAGGSLRLSCAASGRILILNAMGWYRQAPGKERELVAAITNGGSTNYADSVKGRFTISRDNAKNSVYLQMNSLKPEDTAVYYCAARLYSYDYYTVLKLFDYWGQGTQVTVSS | low polyreactivity
